Measured values from paper PMC5037575.

Target: PB2 polymerase subunit fused to Gluc1, of recombinant WSN virus (WSN-PB2-Gluc1) (UniProt P03427)
Conditions: parent: est. 100; read off a plot

**Q.** With “Gluc2-DDX19B wild type (from UniProt Q9UMR2) R428Q” as the substance, how does the percent of parent read?
**A.** The percent of parent was 68%.
